Results: patent US20210395344A1 (TWIST BIOSCIENCE, published 2021)

B1: SARS-CoV-2 variant 1-22 (antibody, V domains shown)
VH: EVQLLESGGGLVQPGGSLRLSCAASGFTFSSYAMNWVRQAPGKGLEWVSIISGSGGSTYYADSVKGRFTISRDNSKNTLYLQMNSLRAEDTAVYYCAREGYRDYLWYFDLWGQGTLVTVSS
VL: QSALTQPASVSGSPGQSITISCTGTSTDVGSYNLVSWYQQHPGKAPKLMIYEGSQRPSGVSNRFSGSKSGNTASLTISGLQAEDEADYYCCSYAGSSTVFGGGTKLTVL
B2: SARS-CoV-2 variant 1-24 (antibody, V domains shown)
VH: EVQLLESGGGLVQPGGSLRLSCAASGFTFSSYAMNWVRQAPGKGLEWVSIISGSGGSTYYADSVKGRFTISRDNSKNTLYLQMNSLRAEDTAVYYCAREGYRDYLWYFDLWGQGTLVTVSS
VL: QSALTQPASVSGSPGQSITISCTGTSSDVGYYNLVSWYQQHPGKAPKLMIYEGNKRPSGVSNRFSGSKSGNTASLTISGLQAEDEADYYCCSYAGGSVVFGGGTKLTVL
B3: SARS-CoV-2 variant 1-23 (antibody, V domains shown)
VH: EVQLLESGGGLVQPGGSLRLSCAASGFTFSSYAISWVRQAPGKGLEWVSIISGSGGSTYYADSVKGRFTISRDNSKNTLYLQMNSLRAEDTAVYYCAREGYRDYLWYFDLWGQGTLVTVSS
VL: QSALTQPASVSGSPGQSITISCTGTSNDVGSYNLVSWYQQHPGKAPKLMIYEGNKRPSGVSNRFSGSKSGNTASLTISGLQAEDEADYYCCSYAGSYTVFGGGTKLTVL
B4: SARS-CoV-2 variant 1-10 (antibody, V domains shown)
VH: EVQLLESGGGLVQPGGSLRLSCAASGFTFSSYDMSWVRQAPGKGLEWVSVISGSGGSTYYADSVKGRFTISRDNSKNTLYLQMNSLRAEDTAVYYCAKGPLVGWYFDLWGQGTLVTVSS
VL: QSALTQPASVSGSPGQSITISCTGTSSNVGSYNLVSWYQQHPGKAPKLMIYEGTKRPSGVSNRFSGSKSGNTASLTISGLQAEDEADYYCCSYAGSSSFVVFGGGTKLTVL
B5: SARS-CoV-2 variant 1-30 (antibody, V domains shown)
VH: EVQLLESGGGLVQPGGSLRLSCAASGFTFSSYAMTWVRQAPGKGLEWVSAISGSGGSTFYADSVKGRFTISRDNSKNTLYLQMNSLRAEDTAVYYCTRPPYGDYGDYWGQGTLVTVSS
VL: QSALTQPASVSGSPGQSITISCTGTSRDVGSYNLVSWYQQHPGKAPKLMIYEGTKRPSGVSNRFSGSKSGNTASLTISGLQAEDEADYYCCSYAGSRTPVVFGGGTKLTVL
B6: SARS-CoV-2 variant 1-9 (antibody, V domains shown)
VH: EVQLLESGGGLVQPGGSLRLSCAASGFTFSSYDMSWVRQAPGKGLEWVSVISGSGGSTYYADSVKGRFTISRDNSKNTLYLQMNSLRAEDTAVYYCAKGPLVGWYFDLWGQGTLVTVSS
VL: QSALTQPASVSGSPGQSITISCTGTSSDVGDYNLVSWYQQHPGKAPKLMIYEGSNRPSGVSNRFSGSKSGNTASLTISGLQAEDEADYYCCSYAGSSSFVVFGGGTKLTVL
B7: SARS-CoV-2 variant 1-31 (antibody, V domains shown)
VH: EVQLLESGGGLVQPGGSLRLSCAASGFTFSSYAMNWVRQAPGKGLEWVSAISGSGGSTFYADSVKGRFTISRDNSKNTLYLQMNSLRAEDTAVYYCTRPPYGDYGDYWGQGTLVTVSS
VL: QSALTQPASVSGSPGQSITISCTGTSSDVGKYNLVSWYQQHPGKAPKLMIYEGSQRPSGVSNRFSGSKSGNTASLTISGLQAEDEADYYCCSYAGSRTPVVFGGGTKLTVL
B8: SARS-CoV-2 variant 1-7 (antibody, V domains shown)
VH: EVQLLESGGGLVQPGGSLRLSCAASGFTFSSYDMSWVRQAPGKGLEWVSVISGSGGSTYYADSVKGRFTISRDNSKNTLYLQMNSLRAEDTAVYYCAKGPLVGWYFDLWGQGTLVTVSS
VL: QSALTQPASVSGSPGQSITISCTGTSSDFGSYNLVSWYQQHPGKAPKLMIYEGNKRPSGVSNRFSGSKSGNTASLTISGLQAEDEADYYCCSYAGSSTFVVFGGGTKLTVL

The binders below were run against T1, Acro COVID S1 (S1N-C82E8) (SARS-CoV-2, UniProt P0DTC2 16-685) (assay: phage ELISA).
T1 construct: domain: S1 (subunit 1)

First: B1
Second: B2
The “specificity ELISA, fold over background” value of the first is higher: 32.7 fold over background for the first, 12.9 fold over background for the second.

Going from B3 to B4, the “specificity ELISA, fold over background” value rises from 5.1 fold over background to 17.4 fold over background.

Compared with B5, B6 is lower in “specificity ELISA, fold over background” value: 16.8 fold over background for the first, 10.7 fold over background for the second.

First: B7
Second: B8
The “specificity ELISA, fold over background” value of the first is higher: 30.4 fold over background for the first, 6.8 fold over background for the second.
